These results are taken from the supplement of paper PMC12042874.

± gives the uncertainty stated by the source.

The nature of the data set: amyloid nucleation score (Sup35N fusion, yeast selection) (log enrichment); library NNK1; higher = more nucleation; inactive = no reads after selection. The procedure, abridged: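 On medium lacking adenine and uracil, psi-negative yeast expressing peptides of 20 random codons fused to Sup35N were grown 7 days at 30°C after a 24-hour induction with 100 μM copper sulfate. Illumina sequencing of input and output plasmid inserts gave the reads, and sequences under 100 input reads were excluded. The nucleation score is the DiMSum log enrichment of output over input reads, centred on the mode score of non-aggregating sequences.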
With IRMFSTLLACNLVIGGCLAN, the amyloid nucleation score is 6.482 ± 0.053.
Under AGFVSVVVF stands 0.005 ± 0.38.
Then IWYFLCICSLYRLEYHLLDC, with -0.405 ± 0.25.
Under VVVFSNYNFVGKCIHVNSEL stands 7.351 ± 0.07.
For KWSPIAGSTMIMEMCH, the amyloid nucleation score is -1.08 ± 0.83.
Consider SVFISNERL, for which the amyloid nucleation score entry was “inactive”.
MRVVPHVWLTWHEATVVLQV gave an amyloid nucleation score of 0.807 ± 0.28.
The substance FGHKPCLATQLTGPTKRCAA displayed an amyloid nucleation score of 0.959 ± 1.1.
On to FLWIYLSNTVLG, for which the amyloid nucleation score was -0.535 ± 0.33.
Then GCIECEGAGCAPIYGVEWLD, with 0.122 ± 0.84.
Then FLLHWFEYGIPNVYRSRRD, with “inactive”; and NFTIDKRNAMLCVGRLYRSF, with 1.05 ± 0.5.
Under RWCWWFFSSYAFFRSNISWV stands -0.197 ± 0.42; under DLCIFIYFVISVRVLYRISN, “inactive”; under SYPCTVHTKGWLVFTCGVCI, 0.32 ± 0.73.
Substance DPGPLARKVGRRIEAAIMVA showed an amyloid nucleation score of 0.992 ± 0.49.
Under DAIVDS stands 0.084 ± 0.54; under SACQLFGVMVPEHRRALMVW, 0.018 ± 0.42; under YVPPSMMLNGGDPEYSVGLK, 0.082 ± 0.89.
Then CLATLSMSYLLFVSGLRRIK, with -0.554 ± 0.59; and IFLIVMFPLFNDCLHCYKTC, with 1.3 ± 0.13.
In turn, MDKEESRCVELSLMSVSVMG displayed an amyloid nucleation score of 1.35 ± 0.79.
For the substance YCVQFVRLMLKKNGRGYNYR, the amyloid nucleation score was -0.762 ± 1.1.
Then FLENSTTSYNCYFNARWKCS, with 0.389 ± 0.35; and THFTTYYYWSQWGLWLSFCQ, with 0.596 ± 0.31; and CYSMNEFFGNLHVSTRTHGK, with -0.944 ± 0.66.
The substance LKASMW came in with an amyloid nucleation score of 0.322 ± 0.37.
Take IIEIRLNLGAVANLSTYGVM: the amyloid nucleation score is 0.327 ± 0.39.
As for LFDDS, the amyloid nucleation score is -0.356 ± 0.46.
With GSPLVVSKTVVFMSGNF, the amyloid nucleation score came to 7.149 ± 0.052.
Then ARSCVLNLVPGFSPSFGT, with -0.426 ± 0.52.
For IDLGFLNKCLCRNSCCVGEA, the amyloid nucleation score is 1.81 ± 0.17.
In the case of ILSFSVRLPVHDSSLCFGSG, the amyloid nucleation score stood at 0.316 ± 0.67.
As for YYISLFTEDMSVRRVNQTCF, the amyloid nucleation score was -2.03 ± 0.96.
Then GGVLGSTKSLFVDPANLGGL, with “inactive”.
The substance TWVVTHPPTM had an amyloid nucleation score of 0.359 ± 0.55.
DLLFMLRGAWAKSFMMGSVG displayed an amyloid nucleation score of 0.059 ± 0.43.
Turning to TLDADYPCNEQDTVWL, the amyloid nucleation score was found to be 1.01 ± 1.1.
Then LLNGEQLQSSDNIRLWIAFR, with 0.151 ± 0.41; and SFDADFSFRVRVFYDQSISI, with -0.035 ± 0.48; and VTMLRSFMHELHSGLKKDLK, with 2.06 ± 0.11.
Then LSMKNQDTCTFTCVLSHLSL, with 1.9 ± 0.23.
Then QRRHMCCVNAFFRDMRKGIG, with 1.63 ± 0.43; and ALHCQPVGH, with -0.006 ± 0.32; and FSALPTLASGLGFGR, with 0.604 ± 0.73.
In turn, YQDAGVLGRLPHLFTNGSFT registered an amyloid nucleation score of 0.021 ± 0.93.
Under SNTRFSCRSPWVCTFFVREV stands 0.085 ± 0.52; under DRLWKSTWKGMTRLMRRSAE, -0.968 ± 0.48; under KLRRSIDTCNVYVWS, -0.593 ± 0.23.
Then WRQYIDRNYVSCSASMLAWE, with 0.583 ± 0.43; and DLLYERTYRSVVISLRTLAG, with 0.816 ± 0.92; and SVGTDY, with -0.465 ± 1.6.
Then LLYPHSTSRGLIMTFYPKSG, with 0.54 ± 0.6; and SWCHFVCLYPKHVFSVVSST, with 0.562 ± 1.2.
RWVYSTRNHLKIVRNNKSEL yielded an amyloid nucleation score of -2.15 ± 2.4.
Then MCVMVGLLYGVLLSSFTNNA, with 0.684 ± 0.23; and CAYVVVLLCSVLVDAGYVCR, with 1.94 ± 0.17.
In turn, HVVVRRIY gave an amyloid nucleation score of -0.065 ± 0.34.
Then NISSQEPISRAATSRKVAGQ, with 0.466 ± 1.4; and RWSLGGICVYVGLNEFVLMI, with 2.56 ± 0.22.
As for MDWLEYHMSFCSHV, the amyloid nucleation score was found to be 0.07 ± 0.26.
In the case of SVCKCKLNERIEKWNYRSIR, the amyloid nucleation score was determined as 0.227 ± 0.43.
Under QSVGMWSY stands -0.256 ± 0.88; under GCSVVNMADMG, 1.29 ± 0.45.
On to MGVFRLNHSQTLRTGQSVEF, for which the amyloid nucleation score is -1.18 ± 2.1.
Then FFNAV, with -0.353 ± 0.59.
Under SLFMDRFNVDVI stands -0.107 ± 0.35; under FMVKHSDDRGYLCFLGIEKV, 0.209 ± 0.93.
NMVSLMVDSELTFVSLICLE displayed an amyloid nucleation score of 3.18 ± 0.064.
Then KYRDLGSFMQSWAARHGTLL, with -0.226 ± 0.68.
The substance KEIINGCRR had an amyloid nucleation score of 5 ± 0.1.
Under SWATWLDMNG stands 0.964 ± 0.76.
Then INDYMLYGVLAYILGHGTVQ, with 0.622 ± 0.49.
Turning to VKIHASEVYFPMQSTYLMVD, the amyloid nucleation score came to 0.086 ± 0.72.
For YIYRDTYLRTPKLGSHMYCL, the amyloid nucleation score entry is “inactive”.
With CDGVMKSGVKKMSTSRDWFM, the amyloid nucleation score result is “inactive”.
Substance AKPMNKTEYFSAYLQLHMGI had an amyloid nucleation score of 3.1 ± 0.12.
VSKSFVSQARLFYIQGDHCL had an amyloid nucleation score of 1.42 ± 0.73.
For the substance MIYVGVDISV, the amyloid nucleation score was determined as 2.24 ± 0.28.
Then KFVYSVGMTLSSGSFSVEIF, with 5.02 ± 0.053; and YYESRNWSILFRLINMF, with -0.078 ± 0.46.
Regarding RSHSNISKSPLFVVGGAQFM, the amyloid nucleation score amounted to 0.995 ± 0.56.
Under NVMIAIPYVGVDKRGMVSGM stands 5.22 ± 0.1; under DLPLDS, 0.16 ± 0.72.
The substance PTHDILFVTDSLTAKANDMV had an amyloid nucleation score of -0.189 ± 0.32.
Under SEFHFMRT stands -0.482 ± 1.7; under ENRYMELTFQCSARRVG, 2.81 ± 0.11.
Under SSTLLRMIEVRNGWEKGVWE stands 0.083 ± 0.2; under GGFSNFMMVCNVATFSSNQL, 3.47 ± 0.19; under LGTTDPYVYSIIMYAFLWIY, 0.386 ± 0.47.
For the substance YGSNWLEGVGLYRGVARQSW, the amyloid nucleation score was -0.781 ± 0.43.
Under NDWRCSKGLLGFWRGGTRQA stands 0.48 ± 0.28; under ELIFFDDHFTDWYLCFNNFG, -1.29 ± 1.4; under PALFVCSSFKLFMPNILGNQ, 6.16 ± 0.063.
In the case of VTLKVFCIVEV, the amyloid nucleation score stood at 0.314 ± 0.44.
Then WAMSTFSVYSKRTFVARWDK, with 0.048 ± 0.29.
YYSHIIQAGCWVVYRDVRLF yielded an amyloid nucleation score of 0.52 ± 0.88.
Turning to RRSYDSLFVVVRRINTCSSP, the amyloid nucleation score is -0.852 ± 1.1.
Then LMGECGLSFLTPY, with 0.275 ± 0.84; and SPTIVIKHRLNLESKRGYKV, with -0.216 ± 0.44; and SRFNPSQRMHSNSGKGGVSF, with “inactive”.
For the substance FHVDDHKWRLPDGELSRTAM, the amyloid nucleation score was -0.341 ± 0.78.
SCTFKMMMGSVLL returned an amyloid nucleation score of 4.45 ± 0.067.
Take DTLEVTFGYYDCYGMYKTIT: the amyloid nucleation score is -1.18 ± 1.7.
On to VDEETMCSFLSLGKVY, for which the amyloid nucleation score turned out to be 0.474 ± 0.69.
Under WEVERDTSSPSEIVINR stands -0.063 ± 0.89; under SQYSADSVHGCHLSVSPTWF, 1 ± 0.81; under GLQSKV, -0.974 ± 2.4.
Take GVAWMFLCYVLAA: the amyloid nucleation score was found to be 0.575 ± 0.27.
Under EACNNQNFCRTSNGESSTTV stands 0.324 ± 0.75; under GRVCKHIFK, 0.375 ± 1.2.
As for CSILYAAPKIRQSARFLMLS, the amyloid nucleation score amounted to 0.451 ± 0.32.
Then YYNNLRVSSYQSKFPIMAMF, with “inactive”; and RDMMMRRWVVSKSEL, with 0.711 ± 0.72; and RIGTFGNDNSMFRSDVLSVS, with 0.579 ± 0.35.
Then SIRCLIREKA, with -0.238 ± 0.75.
For the substance VGIEFLYLPFVSSRWVVTKW, the amyloid nucleation score was determined as 0.277 ± 1.4.
For VMVWLGDREAGLCESELGAG, the amyloid nucleation score is 0.12 ± 0.45.
Under KYFGFSVHSLLCYNRSLFLS stands -0.055 ± 0.35; under RWRLFLRAMSLYDDVSHASA, 0.287 ± 0.23.
Regarding KPLLTQQK, the amyloid nucleation score is -0.356 ± 0.54.
Then FMEVWRYWRFIVSRERFNHI, with -0.207 ± 0.78.
YGMAF registered an amyloid nucleation score of -1.71 ± 2.4.
Substance LSTLQQLGKLLNTVWDDLAQ displayed an amyloid nucleation score of 0.048 ± 0.9.
As for YSSGKELTGLLDKKFIIGLD, the amyloid nucleation score was -0.186 ± 0.39.
Under HYIIIRFLNAELTLCHLRMI stands -1.61 ± 1.7.
Then WKNLGQV, with -0.327 ± 0.39.
In turn, CSGNSSGVRCMVRSNRS gave an amyloid nucleation score of 0.523 ± 0.38.
Turning to LWSVVYIVIYHLMSNADWST, the amyloid nucleation score is -0.252 ± 0.41.
Under DRMPRFLVHENVYTVPERVW stands “inactive”; under ESSIVVGCRGSGWTQDAASQ, -0.465 ± 0.29.
SLDCWLMGGRTANLVRRLGR: the amyloid nucleation score was -0.39 ± 0.95.
Take SIRMGSEVRSDNEMVMRWQM: the amyloid nucleation score is 3.67 ± 0.16.
Under NPRPH stands -0.601 ± 0.62; under LSFAKGSVFITGDCISGTVD, -1.49 ± 1.7.
In the case of RINLVDLMWMRHWRMGNI, the amyloid nucleation score turned out to be 1.41 ± 0.29.
Under YHLERKGPAFVNFLTMGSCR stands -0.908 ± 0.85; under GFVMKLLL, 1.35 ± 0.21.
